Experimental data published in article PMC4018254, “Bacterial Magnetosome Biomineralization - A Novel Platform to Study Molecular Mechanisms of Human CDF-Related Type-II Diabetes” (PLoS ONE, 2014).
Numbering of substitutions follows the chain as printed. Names may count otherwise.

B1: MamM-CTD (cytosolic C-terminal domain of the magnetosome CDF transporter MamM), wild type (domain or fragment, Magnetospirillum gryphiswaldense)
chain: EAVQNRIVEAAERVPGVRGVIHLRARYVGQDIWADMIIGVDPENTVEQAHEICEAVQAAVCGKIRRIESLHVSAEAREIGDTTKPSFSDQPLSFDEVMLSKVDN
notes: MamM, cation diffusion facilitator of Magnetospirillum gryphiswaldense, cytosolic C-terminal domain (CTD); also called wild-type MamM-CTD; apo-MamM-CTD; source: recombinant, purified; expression and purification 'performed as previously described [20], [29], [30]'
B2: MamM-CTD V260R mutant (domain or fragment, Magnetospirillum gryphiswaldense)
chain: B1 chain with V46R
notes: MamM, cation diffusion facilitator of Magnetospirillum gryphiswaldense, cytosolic C-terminal domain (CTD) with V260R; The mutation mimics the R325 allele of human ZnT-8; source: recombinant, purified; expression, purification and site-directed mutagenesis 'performed as previously described [20], [29], [30]'
B3: MamM-CTD V260W mutant (domain or fragment, Magnetospirillum gryphiswaldense)
chain: B1 chain with V46W
notes: MamM, cation diffusion facilitator of Magnetospirillum gryphiswaldense, cytosolic C-terminal domain (CTD) with V260W; The mutation mimics the W325 allele of human ZnT-8; source: recombinant, purified; expression, purification and site-directed mutagenesis 'performed as previously described [20], [29], [30]'

Biological target: the molecule itself
Test: SEC; Superdex200; elution volumes of the mutants compared with wild-type MamM-CTD; self-association (dimer)

| Protein | stoichiometry N |
| --- | --- |
| B1 | 2 |
| B2 | 2 |
| B3 | 2 |
